For 20 sequences, protein production results are on record in a protein production outcome set (Wang et al. 2014).

The nature of the series: label from the status in PepcDB records.

For the sequence “MANDPRHLPSRKLLVTCALPYANGSIHLGHMLEHIQADIWVRYQRLRGNTVNFICADDAHGTPIMLKAQQMGITPEEMIAAVSEEHQKDFAGFDISFDNYHSTHSEENRELASHIYLELKKNGFISSRTISQLFDPEKEMFLPDRFVKGTCPKCKSEDQYGDNCDNCGETYSPTELINPKSAVSGATPVMKDSEHFFFDLPQFESMLKEWTRSGSLQSETANKMQEWFESGLQQWDISRDAPYFGFEIPGEKDKFFYVWLDAPIGYMGSFKNLCNKRDDLDFDEYWNKDSKTELYHFIGKDIVYFHSLFWPAMLEGSGFRKPNNVFVHGYVTVNGAKMSKSKGTFVKASTYLDHLDPECLRYYYAAKLNSRIDDLDLNLEDFTQRVNADVVNKIVNLASRNAGFIAKRFEGKLSDNFAEPELYNEFVAAADRIAELFEAREFGRAIREITALADKANQYVDEKAPWVVAKEEGKDQELQEICSVGINLFRVLMTYLKPVMPALAARTEAFLNQELTWEGIAQPLTGHEITKFKALFNRIDPKNIEAMIEASKEDAAAEMAAKEKAEAAKTETELSKDPIADEIEFDTFAQVDLRIARIISCEEVPKANKLLKFQLDIGGETRQVFSGIKSAYKPEELEGKLTVMVANLKPRKMKFGMSEGMILAAGPGGSDLWILEPHEGAQPGMRVM”, the protein production entry is recorded as “failed”.

With “MANIEIRQETPTAFYIKVHDTDNVAIIVNDNGLKAGTRFPDGLELIEHIPQGHKVALLDIPANGEIIRYGEVIGYAVRAIPRGSWIDESMVVLPEA”, the protein production result is given as “not failed”.

Consider “MANIKIRQETPTAFYIKVHDTDNVAIIVNDNGLKAGTRFPDGLELIEHIPQGHKVALLDIPANGEIIRYGEVIGYAVRAIPRGSWIDESMVVLPEA”, for which the protein production result is given as “not failed”.

On to “MANKEKLPWDLEEEILSRVPPTSLDRFKTVCKRWNALFNDKTFINNHKMTFQFVLSTRSKIYSVSVNPKVEVRELTLNNPGLKAQRHKNLFATSGLLLCDVGNGAVVWNPWLKQSRCIKLEVNEPSLDFLGIGYDNNKRVEEIVYKTLSVYMKDLGSQYTWKIHDFASDTWIDQEIEKTKYSRRITEGSVTIRLTNLSVVSLNGKFFKFCDLPSGKNRRRDALALRVFREDRFSLLRQCHVTKKIKIWVTKNKIDNRYGGDVKWMSFMEVSIPTMPDLEHPKFNSQPSYFIDDKRLVICSCDETGRAWIYVVGGNKLVSKTQLDSVVDPWPLHCTYFPSLVLVPGGQREEAELQEAKNLHVTTELYVPGKTKSSIKLHYG”, for which the protein production entry was “failed”.

As to “MANKENTSDEGLRVSYDVKTYHEQKYIDYTLRLREILKTLPSFAKDYFRAIEPTTSANTRISYAYDIRVFFRFLMENNPVYKNYTIDQFTLADIENLEPVDIEEYQEYLKVYKNDEKQVTNTEKGLARKMSALRSFYGYYFKRQAISKNPTLLVDMPKLHEKAIIRLDADEVVRLLDYVDHGGDHLTGQKKAYFEKTRNRDLAILTLLLGTGIRVSECVGLDINDVDFENNGIKVMRKGGNEMIVYFGEEVENALKTYMYTTRRTTLPLPGHENALFLSTQRKRMGVQAIENMVKKYAREVTPNKKITPHKLRSTYGTSLYKETGDIYLVADVLGHKDVNTTKKHYAAIDEDRRRQAANIVKLREV”, the protein production entry is given as “failed”.

As to “MANNTTGFTRIIKAAGYSWKGLRAAWINEAAFRQEGVAVLLAVVIACWLDVDAITRVLLISSVMLVMIVEILNSAIEAVVDRIGSEYHELSGRAKDMGSAAVLIAIIVAVITWCILLWSHFG”, the protein production entry was “failed”.

As for “MANRLRTGIDVLDRKLDGGIPAGSIVVLSAQPASQAELFLYELTATRGTLWLSLDRTAESVIASIEQTPANTGDPTVRHISGEAPLDNAGKLVSALPETSNLIVDPLDVLEAQEPHSRFRAFMNDLQNHIVNTGSLAIVHCLDGRDVPPLRDTTEHFADVVFQLNTTTNGDEVENRLAIPKFRGGRAPTDIIKLNLVEEVSIDTSRDIALEHHHHHH”, the protein production entry was “failed”.

For “MANSASPEQNQNHCSAINNSIPLMQGNLPTLTLSGKIRVTVTFFLFLLSATFNASFLLKLQKWTQKKEKGKKLSRMKLLLKHLTLANLLETLIVMPLDGMWNITVQWYAGELLCKVLSYLKLFSMYAPAFMMVVISLDRSLAITRPLALKSNSKVGQSMVGLAWILSSVFAGPQLYIFRMIHLADSSGQTKVFSQCVTHCSFSQWWHQAFYNFFTFSCLFIIPLFIMLICNAKIIFTLTRVLHQDPHELQLNQSKNNIPRARLKTLKMTVAFATSFTVCWTPYYVLGIWYWFDPEMLNRLSDPVNHFFFLFAFLNPCFDPLIYGYFSL”, the protein production entry is “not failed”.

As to “MANVLVINFPGEGHINPTLAIISELIRRGETVVSYCIEDYRKKIEATGAEFREFENFLSQINIMERVNEGGSPLTMLSHMIEASERIVTQIVEETKGEQYDYLLYDNHFPVGRIIANVLQLPSISSCTTFAFNQYITFNDEQESRQVDETNPLYQSCLAGMEKWNRQYGMKCNSMYDIMNHPGDITIVYTSKEYQPRSDVFDESYKFVGPSIATRKEVGSFPMEDLKGEKLIFISMGTVFNEQPELYEKCFEAFKGVEATVILAVGKKINISQFENIPNNFKLYNYVPQLEVLQHADVFVTHGGMNSSSEALYYGVPLVVIPVTGDQPLVAKRVNEVGAGIRLNRKELTSELLRETVKEVMYDVTFKENSRKVGESLRNAGGYKRAVDEIFKMKMNSYLKLK”, the protein production result was “failed”.

Take “MANVSMEAKGLLILGFPIAATMIAQTLMSLTDLMLVSRLGEKQVAGVSLGIAVYSFGMLFGLGVITAVTPMIAKAYGRKDFNAVSNYTRQGLWVAALVAMPGVIALILTRSILLFLNVEAETANIASDYCVGALMGLPAFLIYVNLRCFLSAIGRPKTTTWIMFLAVPVNYIIGHVLIFGVMDAEGLGITGAGLASSVTRLAILSTVIATLKYGADFKCFSLFENVMNVKPVVVKKIVLLGLPVGVRILLAEGMLPIIALLISTLGTIDLVAHMVAVRLSGVSAVIALGFSSAASTRVAWQVAANNQNGVRVTGYVASALAFGVSALLAMLLIFFPTELVMLLFDIDDAEVLALTSHLLKVVAAYQILNAIQTAVVGSLLGVSDTKIPTCLVLIGNWLVGLASAYGLVVLFEATVTAVWGGLVLGQVFVVVTCLCRFHMKTKALHE”: the protein production entry is on record as “failed”.

In the case of “MAPARLRADTGSGEPIIHSTLLYILLAATISGVGSIFGAALLSLTVASRVVERMVSFSVGVLLATALLHSLPEAFESGADTRALFGTLLAGLLGFFLLEKISLLRHSHHHEGDGHHHHHGHDREEAGRSGLTILVGDTFHNFADGIVIAAAFLANPHIGIVTALAIAAHEIPQEVGDFIVLLNAGFSKARAFAFNLLSSLAAIIGGLVGYFLLDQLTGWIPYVLVIASSSFLYIAVSDLMPQMQRKPRLKESAVQVVLVAAGIAAIVFITNGVHEQHGHRHSRTAAGVTSN”, the protein production result was “failed”.

On to “MAPEPLSAAGQNLIDTATSVINGIPVSDFYSVASAAISDDGRVFSGVNVYHFNGGPCAELVVLGVAAAAGATKLTHIVAIANEGRGILSPCGRCRQVLADLHPGIKAIVIGKEGPKMVAVEELLPSIYAWDKDYDRI”, for which the protein production entry is “not failed”.

Regarding “MAPIFLEYKVVHDNITYYIIYVFIYNLSLKLVTMYTINPSSHTILNYNVSLEPEQIFSNITGVSTYYSLDGKKILAYEDNNGSIIVAYNGLILKKASNNSVRYLIAANYPGIDNSKFPSLYKLAEISIFDSNIRVLVLGVLLTILSSFILKVMVGRYDKVR”, the protein production entry is given as “failed”.

With “MAPKPVAVDAGHYRGTWLEIGRMPMLLTDGCVAGYSTYRQGKSADEVLVEDGCREGTPQGKLKTINGVGKIEDFASTKAKMRVRYPLLITFNYWVLYKSPDKSWFISANPSTEDVWVYARSVPSKAKLNRMMMKVRELGYDVKKLEFPLEHHHHHH”, the protein production result is given as “not failed”.

Turning to “MAPLQTPLCSEIGIDHPVVQAPVGSVSTPSLAAAVADAGGLGMLAMSWREADAIRDAYTDAANATDGVVGVNVVLDESTGVLSPSACLDACLDAGAPVVSFSFGDAGPYIDRVHEVGGTVMVTVASAAEARAAVDAGADVVVAQGREAGGHVQSDVTTMSLLPRVADGVPVPVVAAGGLGDGRGLAAALTLDADGGWFGTRFVATEESGAHEAYRQQIVDAPETATRFTDLFDRGWPDQPHRVLETDEVRQQAGADSGGESDGSDPEQIAQMPDGEPISRFADMPPLAGMTGDVEALPHYAGQSTGLAQDVRPAGEVVARLVSDARAALADASAAAE”, the protein production entry is listed as “failed”.

Take “MAPPTPHLAVRGSDGTLLLHGPPNCQESSAFQRDDRQGRYMTFSNDGTLFAWCNGSQVTVLKVPSGDLVKSFDLPKTTALEFSPLNKVLATWQQYTKTQDNPQGEANLQLWDLQTGACMKAFYQKKMTGWCPSWADDESISVRNVNNELHFFENNNFETIANKLHLQKVSEFALSPGSQPSKVAVYVPGSKGAPSFVRLYQYPNFGGPTCALANKSFFKADKVNMLWNKKATAVLVTASTEVDKTGASYYGEQTLHYVATNGESAVVQLPKNGPIYDVSWSPNSTEFCVVYGFMPAKATVFNNKCESVFDFGTGPRNAAFYSPQGHILVLAGFGNLRGQMEVWDVKKYKQVSKPQAEDTTHFSWCPDGEHIVTATCSPRLRASNGYKIWHYTGTVLYKHETPSGKELWEVLWQPFPAGVFPERAVKYQALPSELGSTEAKPAQAYRPPALRNKPQTASSKLHEEEPPQNMKPGAAGEKQPSKAALKNQKRREAKKAAKQENKPDEAPPPAADPAPVSHVTSSCGDPETDKKIKNLKKKLKAIDELKEQQAAGKVMQKNQLEKMQKEAQLLKELEDLELGL”: the protein production entry is on record as “not failed”.

For the sequence “MAPQPVIRSKQAEKTINGNQTQVVCTEFSNYIFIVLTQYGKIGTLVSITPDTRSGDISVPMYTSKVLLGKDEPLTHVYAKNVATFVSQESGNRPILLGLSLKDNSAETMKTVKDMIKSCQVW”, the protein production result is “failed”.

With “MAPRQLAAADLAVGQVVAQREIRLDAQAFAQFAALTGDAHPIHYDAGYVQRQGLRAPIAHGLLLVAISALGATPLSAQLHDAMVAMVGVEAVFMRPVYVDETVQCVYRVAQIEHVAKGRSKTTIAVSIHTTDAPPDAARQAHCVVHLTFLLKTHLQGLEHHHHHH”, the protein production result is on record as “failed”.

In the case of “MAQFYSAKRRTTTRQIITVSVNDLDSFGQGVARHNGKTLFIPGLLPQENAEVTVTEDKKQYARAKVVRRLSDSPERETPRCPHFGVCGGCQQQHASVDLQQRSKSAALARLMKHEVSEVIADVPWGYRRRARLSLNYLPKTQQLQMGFRKAGSSDIVDVKQCPILVPQLEALLPKVRACLGSLQAMRHLGHVELVQATSGTLMILRHTAPLSSADREKLECFSHSEGLDLYLAPDSEILETVSGEMPWYDSNGLRLTFSPRDFIQVNAGVNQKMVARALEWLDVEPEDRVLDLFCGMGNFTLPLATQAASVVGVEGVPALVEKGQQNARLNGLQNVTFYHENLEEDVTKQPWAKNGFDKVLLDPARAGAAGVMQQIIKLEPIRIVYVSCNPATLARDSEALLKAGYTIARLAMLDMFPHTGHLESMVLFSRVK”, the protein production result is listed as “not failed”.

Turning to “MAQHTVYFPDAFLTQMREAMPSTLSFDDFLAACQRPLRRSIRVNTLKISVADFLQLTAPYGWTLTPIPWCEEGFWIERDNEDALPLGSTAEHLSGLFYIQEASSMLPVAALFADGNAPQRVMDVAAAPGSKTTQISARMNNEGAILANEFSASRVKVLHANISRCGISNVALTHFDGRVFGAAVPEMFDAILLDAPCSGEGVVRKDPDALKNWSPESNQEIAATQRELIDSAFHALRPGGTLVYSTCTLNQEENEAVCLWLKETYPDAVEFLPLGDLFPGANKALTEEGFLHVFPQIYDCEGFFVARLRKTQAIPALPAPKYKVGNFPFSPVKDREAGQIRQAATGVGLNWDENLRLWQRDKELWLFPVGIEALIGKVRFSRLGIKLAETHNKGYRWQHEAVIALASPDNMNAFELTPQEAEEWYRGRDVYPQAAPVADDVLVTFQHQPIGLAKRIGSRLKNSYPRELVRDGKLFTGNA”, the protein production entry is recorded as “not failed”.
